Values belong to the binder of their own block, whether it stands above or below them.
Columns and labels:
APC3323-AA = biological target: T1, APC3323-AA; experiment: two-hybrid library CCmax; conditions: mean of both orientations;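 also: natural log of median RNA to DNA barcode read ratio; higher means stronger binding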
T1 chain: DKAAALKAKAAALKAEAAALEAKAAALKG

APC3265-AA = biological target: T2, APC3265-AA; experiment: two-hybrid library CCmax; conditions: mean of both orientations;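 also: natural log of median RNA to DNA barcode read ratio; higher means stronger binding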
T2 chain: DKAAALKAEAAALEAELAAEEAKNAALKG

APC4100-AA = biological target: T3, APC4100-AA; experiment: two-hybrid library CCmax; conditions: mean of both orientations;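 also: natural log of median RNA to DNA barcode read ratio; higher means stronger binding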
T3 chain: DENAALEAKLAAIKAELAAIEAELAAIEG

APC222-AA = biological target: T4, APC222-AA; experiment: two-hybrid library CCmax;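 also: natural log of median RNA to DNA barcode read ratio; higher means stronger binding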
T4 chain: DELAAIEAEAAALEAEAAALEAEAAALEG

APC542-AA = biological target: T5, APC542-AA; experiment: two-hybrid library CCmax;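 also: natural log of median RNA to DNA barcode read ratio; higher means stronger binding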
T5 chain: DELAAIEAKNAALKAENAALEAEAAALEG

APC3354-AA = biological target: T6, APC3354-AA; experiment: two-hybrid library CCmax; conditions: mean of both orientations;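 also: natural log of median RNA to DNA barcode read ratio; higher means stronger binding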
T6 chain: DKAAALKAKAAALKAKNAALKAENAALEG

APC2375-AA = biological target: T7, APC2375-AA; experiment: two-hybrid library CCmax; conditions: mean of both orientations
T7 chain: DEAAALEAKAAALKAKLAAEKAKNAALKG

APC3881-AA = biological target: T8, APC3881-AA; experiment: two-hybrid library CCmax; conditions: mean of both orientations
T8 chain: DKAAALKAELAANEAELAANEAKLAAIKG

APC2724-AA = biological target: T9, APC2724-AA; experiment: two-hybrid library CCmax; conditions: mean of both orientations
T9 chain: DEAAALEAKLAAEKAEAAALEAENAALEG

APC5531-AA = biological target: T10, APC5531-AA; experiment: two-hybrid library CCmax
T10 chain: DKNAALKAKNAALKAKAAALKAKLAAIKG

APC2474-AA = biological target: T11, APC2474-AA; experiment: two-hybrid library CCmax
T11 chain: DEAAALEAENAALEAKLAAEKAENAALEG

APC2811-AA = biological target: T12, APC2811-AA; experiment: two-hybrid library CCmax; conditions: mean of both orientations
T12 chain: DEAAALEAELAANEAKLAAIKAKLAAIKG

APC9806-AA = biological target: T13, APC9806-AA; experiment: two-hybrid library CCmax; conditions: mean of both orientations
T13 chain: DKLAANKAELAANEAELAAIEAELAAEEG

APC2556-AA = biological target: T14, APC2556-AA; experiment: two-hybrid library CCmax; conditions: mean of both orientations
T14 chain: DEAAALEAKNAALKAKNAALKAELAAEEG

APC7524-AA = biological target: T15, APC7524-AA; experiment: two-hybrid library CCmax; conditions: mean of both orientations
T15 chain: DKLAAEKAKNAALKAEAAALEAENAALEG

APC6088-AA = biological target: T16, APC6088-AA; experiment: two-hybrid library CCmax; conditions: mean of both orientations
T16 chain: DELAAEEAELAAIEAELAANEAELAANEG

APC8516-AA = biological target: T17, APC8516-AA; experiment: two-hybrid library CCmax
T17 chain: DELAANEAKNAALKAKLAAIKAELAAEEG

APC9182-AA = biological target: T18, APC9182-AA; experiment: two-hybrid library CCmax; conditions: mean of both orientations
T18 chain: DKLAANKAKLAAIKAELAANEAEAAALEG

APC9291-AA = biological target: T19, APC9291-AA; experiment: two-hybrid library CCmax; conditions: mean of both orientations
T19 chain: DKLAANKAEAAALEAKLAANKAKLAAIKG

APC2257-AA = biological target: T20, APC2257-AA; experiment: two-hybrid library CCmax; conditions: mean of both orientations
T20 chain: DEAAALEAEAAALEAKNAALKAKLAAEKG

APC9141-AA = biological target: T21, APC9141-AA; experiment: two-hybrid library CCmax; conditions: mean of both orientations
T21 chain: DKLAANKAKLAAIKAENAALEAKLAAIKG

APC8401-AA = biological target: T22, APC8401-AA; experiment: two-hybrid library CCmax; conditions: mean of both orientations
T22 chain: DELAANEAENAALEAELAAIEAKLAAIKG

APC4336-AA = biological target: T23, APC4336-AA; experiment: two-hybrid library CCmax; conditions: mean of both orientations
T23 chain: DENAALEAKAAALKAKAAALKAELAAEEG

APC2543-AA = biological target: T24, APC2543-AA; experiment: two-hybrid library CCmax; conditions: mean of both orientations
T24 chain: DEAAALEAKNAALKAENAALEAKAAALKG

APC5009-AA = biological target: T25, APC5009-AA; experiment: two-hybrid library CCmax; conditions: mean of both orientations
T25 chain: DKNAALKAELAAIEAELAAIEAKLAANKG

APC2981-AA = biological target: T26, APC2981-AA; experiment: two-hybrid library CCmax; conditions: mean of both orientations
T26 chain: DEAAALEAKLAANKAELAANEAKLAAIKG

P8bHq = biological target: T27, P8bHq; experiment: two-hybrid library CCNG1
T27 chain: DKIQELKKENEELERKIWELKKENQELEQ

P7bHq = biological target: T28, P7bHq; experiment: two-hybrid library CCNG1
T28 chain: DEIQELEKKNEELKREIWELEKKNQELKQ

P9bHq = biological target: T29, P9bHq; experiment: two-hybrid library CCNG1
T29 chain: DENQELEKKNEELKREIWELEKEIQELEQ

P5bHq = biological target: T30, P5bHq; experiment: two-hybrid library CCNG1
T30 chain: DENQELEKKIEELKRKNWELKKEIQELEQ

P6bHq = biological target: T31, P6bHq; experiment: two-hybrid library CCNG1
T31 chain: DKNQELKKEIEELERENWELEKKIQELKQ

P4bHq = biological target: T32, P4bHq; experiment: two-hybrid library CCNG1
T32 chain: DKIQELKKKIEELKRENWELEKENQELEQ

P2bHq = biological target: T33, P2bHq; experiment: two-hybrid library CCNG1
T33 chain: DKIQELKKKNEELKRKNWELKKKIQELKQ

4H342-bN = biological target: T34, 4H342-bN; experiment: two-hybrid library CCNG1
T34 chain: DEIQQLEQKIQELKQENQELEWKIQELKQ

4H496-bN = biological target: T35, 4H496-bN; experiment: two-hybrid library CCNG1
T35 chain: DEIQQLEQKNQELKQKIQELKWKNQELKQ

4H3070-bN = biological target: T36, 4H3070-bN; experiment: two-hybrid library CCNG1; conditions: mean of both orientations
T36 chain: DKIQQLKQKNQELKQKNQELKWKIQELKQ

4H3632-bN = biological target: T37, 4H3632-bN; experiment: two-hybrid library CCNG1
T37 chain: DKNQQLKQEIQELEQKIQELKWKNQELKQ

interaction score (APC3323-AA): -0.292 | interaction score (APC3265-AA): -1.62 | interaction score (APC4100-AA): -1.75 | interaction score (APC222-AA): -2.62 | interaction score (APC542-AA): -1.23 | interaction score (APC3354-AA): -1.41 | interaction score (APC2375-AA): -1.53 | interaction score (APC3881-AA): -1.61 | interaction score (APC2724-AA): -2.15 | interaction score (APC5531-AA): -1.91 | interaction score (APC2474-AA): -1.83 | interaction score (APC2811-AA): -1.59 | interaction score (APC9806-AA): -1.68 | interaction score (APC2556-AA): -2.32 | interaction score (APC7524-AA): -2.39 | interaction score (APC6088-AA): -1.62 | interaction score (APC8516-AA): -1.79 | interaction score (APC9182-AA): -1.69 | interaction score (APC9291-AA): -1.82 | interaction score (APC2257-AA): -1.71 | interaction score (APC9141-AA): -1.74 | interaction score (APC8401-AA): -1.94 | interaction score (APC4336-AA): -1.82 | interaction score (APC2543-AA): -1.8 | interaction score (APC5009-AA): -2.08 | interaction score (APC2981-AA): -1.93
Binder: DELAAIEAEAAALEAEAAALEAEAAALEG [APC222-AA]

interaction score (P8bHq): 0.361 | interaction score (P7bHq): 0.668 | interaction score (P9bHq): -1.74 | interaction score (P5bHq): 0.419 | interaction score (P6bHq): 1.33 | interaction score (P4bHq): 0.0617 | interaction score (P2bHq): 0.693
Binder: DKIQELKKKNEELKRKNWELKKKIQELKQ [P2bHq]

interaction score (4H342-bN): 0.751 | interaction score (4H496-bN): -1.31 | interaction score (4H3070-bN): -1.41 | interaction score (4H3632-bN): -1.38
Binder: DKIQQLKQKNQELKQKNQELKWKIQELKQ [4H3070-bN]

Reference: article PMC10397247
